# Assay results published in the nanobody polyreactivity screen of Harvey et al. (2022).
# Assay: yeast display, Sf9 membrane polyspecificity reagent, FACS + sequencing; frameworks hold sequencing errors
# In short: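 Nanobodies from a synthetic yeast display library (Saccharomyces cerevisiae BJ5465), induced 36–48 hours with galactose, were stained 1 hour at 4 °C with 10% biotinylated, detergent-solubilized Sf9 membrane reagent, enriched on streptavidin microbeads, then FACS-sorted. Anti-HA (expression) and streptavidin (reagent binding) fluorescence set low and high (top ~1%) gates. Polyreactivity labels come from the gate of origin. Genes were colony-PCR amplified, MiSeq 2 × 250 sequenced and filtered by CDR length.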
row,Sequence,polyreactivity (PSR sort gate)
1,QVQLVESGGGLVQAGGSLRLSCAASGRTFYVYSMGWYRQAPGKERELVAAITASGGSTYYADSVKGRFTLSRDNAKNTVYLQMHSLKPEDTAVYYCAARVVTRVRGVGYNYWGHGTQVTVSS,high polyreactivity
2,QVQLVESGGGLVQAGGSLRLSCAASGRTFYVYTMGWYIQAPGKEREMVAGIAYSGGSTYYADSVKGRFTISRDNAKNTVYLQMNSLKPEDTAVYYCNADLYFPYFDGKTRHGGYWGQGTQVTVSS,low polyreactivity
3,QVQLVESGGGLVQAGGSLRLSCAASGRTFYWNAMGWYRQAPGKERELVAAIRWRGGNTYYADSVKGRFTISRDNAKNTVYLQMNSLKPEDTEVYYCNKYGYKGGVGYDYWGQGTQVTVSS,high polyreactivity
4,QVQLVESGGGLVQAGGSLRLSCAASGRTFYWYTMGWYRQAPGKERELVAAITYRAGSTYYADSVKGRFTISRDNAKNTVYLQMNSLKPEDTAVYYCNADPPPEYYPDKDNYWGQGTQVTVSS,low polyreactivity
5,QVQLVESGGGLVQAGGSLRLSCAASGRTFYWYVMGWYRQAPGKERELVAAITQTGSSTYYADSVKGRFTISRDNAKNTVYLQMNSLKPEDTAAYYCADRLSRNHYEVDYWGQGTQVTVSS,low polyreactivity
6,QVQLVESGGGLVQAGGSLRLSCAASGRTFYYAMGWYRQAPGKERELVATITSGGSTNYADSVKGRFTISRDNAKNTVYVQMNSLKPEDTAVYYCNRDIPPGNYYKALYYYWGQGTQVTVSS,low polyreactivity
7,QVQLVESGGGLVQAGGSLRLSCAASGRTFYYARGWYRQAPGKERELVAAITSSSSTYSADSVKGRFTISRDNAKNTVYLQMNSLKPEDTAVYYCNAADDPYGSPSYGYDYWGQGTQVTVSS,low polyreactivity
8,QVQLVESGGGLVQAGGSLRLSCAASGRTFYYNGMGWYRQAPGKERELVAAITSGGTTSYADSVKGRFTISRDNAKNTVYLLMNCLKPEDTAVYYCNAECAPWGSAYGHDQYDYWGQGTQVTVSS,low polyreactivity
9,QVQLVESGGGLVQAGGSLRLSCAASGRTFYYNVMGWYRQAPGKERELVAAISTGVSTNYADSVKGRFTISRDNAKNTVYLQMNSLKPEDTAVYYCNARSYRWYRPVYRYDYWGQGTQVTVSS,high polyreactivity
10,QVQLVESGGGLVQAGGSLRLSCAASGRTFYYYAMGWYIQAPGKEREFVASISYSGARTYYADSVKGRFTISRDNAKNTVYLQMNSLKPEDTAVYYCNRYASNYGYIDYWGQGTQVTVSS,high polyreactivity
11,QVQLVESGGGLVQAGGSLRLSCAASGRTFYYYAMGWYIQAPGKERELVATITKSSGSTSYADSVKGRFTISRDNAKNTVYLQMNSLKPEDTAVYYCAKVFRSGGVYRYDYWGQGTQVTVSS,high polyreactivity
12,QVQLVESGGGLVQAGGSLRLSCAASGRTFYYYAMGWYRQAPGKERELVAAISRGGGSTYYADSVKGRFTISRDNAKNTVYLQMNSLKPEDTAVYSWNKVYSTSSYDYWGQGTQVTVSS,high polyreactivity
13,QVQLVESGGGLVQAGGSLRLSCAASGRTFYYYAMGWYRQAPGKERELVAAISSNGGSTYADSVKGRYTISRDNAKNTVYLQMNSLKPEDTAVYYCNARFTYRWGMGYWGHGTQVTVSS,high polyreactivity
14,QVQLVESGGGLVQAGGSLRLSCAASGRTFYYYAMGWYRQAPGKERELVAAITSNGGSTYYADSVKGRFTISRDNAKNTVYLPMNSLKPEDTAVYYCAADTYWYLSPYDYWGQGTQVTVSS,low polyreactivity
15,QVQLVESGGGLVQAGGSLRLSCAASGRTFYYYAMGWYRQAPGKERELVARISRGGSTNYADSVKGRFTISRDNAKNTVYLQMNSLKPEDTAVYYCAKTISYTGRFWGYDYWGQGTQVTVSS,high polyreactivity
16,QVQLVESGGGLVQAGGSLRLSCAASGRTFYYYGMGWYRQAPGKERELVAAINRGDSTKYADSVKGRFTISRDNAKNTVYLQMNSLKPEDTAVYYCNARLRASFARFIYEYWGQGTQVTVSS,low polyreactivity

row,Sequence,polyreactivity (PSR sort gate)
1,QVQLVESGGGLVQAGGSLRLSCAASGRTIADNAMGWYRQAPGKEREVVATISYSDSTTYYADSVKGRFTISRDNAKNTVYLQMNSLKPEDTAVYYCAAERLTHWGAFAAYDYWGQGTQVTVSS,low polyreactivity
2,QVQLVESGGGLVQAGGSLRLSCAASGRTIANNAMGWYRQAPGKERQLVAVITNSGRTYYADSVKGRFTISRDNAKNTVYLQMNSLKPEDTAVYYCAVRYFDRGGSEHPVTFYWGQGTQVTVSS,high polyreactivity
3,QVQLVESGGGLVQAGGSLRLSCAASGRTIAQYAMGWSRQAPGKERELVAAISSSGGSTYYADSVKGRFTISRDNAKNTVYLQMNSLKPEDTAVYYCAKYGTKAKQYDYWGQGTQVTVSS,high polyreactivity
4,QVQLVESGGGLVQAGGSLRLSCAASGRTIDHNTMGWYRQAPGKERELVAAISWSGGTTYYADSVKGRFTISRDNEKNTVYLQMNSLKPEDTAVYYCAADRSRGSYGYQYDYWGQGTQVSVSS,low polyreactivity
5,QVQLVESGGGLVQAGGSLRLSCAASGRTIDHYAMGWYRQAPGKDRELVAAISTTGGSTYYADSVKGRFTISRDNAMNTVYLQMNSLKPEDTAVYFCAARGLRTGGYWGQGTQVTVSS,high polyreactivity
6,QVQLVESGGGLVQAGGSLRLSCAASGRTIDHYAMGWYRQAPGKERELVAAISTTGGSTYYADSVKGRFTISRDNAKNTVYLQMNSLKPEYTAVYYCAARGLRTGGYWGQGTQVTVSS,high polyreactivity
7,QVQLVESGGGLVQAGGSLRLSCAASGRTIDPNAMGWYRQAPGKERELVAAITRTGVRTYYADSVKGRFTISRDNAKNTVYLQMNSLKPEDTAVYYCNRYGARSNDYWGQGTQVTVSS,low polyreactivity
8,QVQLVESGGGLVQAGGSLRLSCAASGRTIDRMLMGSYRQAPGKERELVAAITSGGRTNYADSVKGRFTISRDNAKNTVYLKMNSLKAEDTAFYYCARHGGRRPVSSKGNTYDYWGQGTQVTVLS,low polyreactivity
9,QVQLVESGGGLVQAGGSLRLSCAASGRTIDWYAMGWYRQAPGKVRELVAGITYSGGSTYYADSVKGRFTISRDIANKTVYFQMNSLKPEDTAVYYCAAAKSYRSGSWYEYWGQGTQVTVSS,high polyreactivity
10,QVQLVESGGGLVQAGGSLRLSCAASGRTIEGNVMGWYRQAPGKERELVAAITRTAGSTYYADSVKGRFTISRDNAKNTVYLQMNSLKPEDTAVYYCAVEGIYRWYDYSWYYTSTYDYWGQGTQVTVSS,low polyreactivity
11,QVQLVESGGGLVQAGGSLRLSCAASGRTIFYNAMGWYRQAPGKERELVAAINWRGGSTYYADSVKGRFTISRDIAKNTVYLQMNSLKPEDTAVYYCAARNVYVWYDYWGQGTQVTVSS,low polyreactivity
12,QVQLVESGGGLVQAGGSLRLSCAASGRTIGAYAMGWYRQAPGKEREFVAAITFGGGPTYYADSVKGRFTISRDNAKNTVYLQMNSLKPEDTAVYYCAKRIDLSFPYARYDYWGQGTQVTVSS,low polyreactivity
13,QVQLVESGGGLVQAGGSLRLSCAASGRTIGGYVMGWYRQAPGTERELVAVITISGGSTYYADSVKGRFTISRDNAKNTVYLQMNSLKPEDTAVYYCAARTYYGYDYWGQGTQVTVSS,high polyreactivity
14,QVQLVESGGGLVQAGGSLRLSCAASGRTIGSYAMGWYRQAPGKERELVAAITSSCGSTYYADSVKGRFTISRDNAKNTVYLQMNSLKPEDTAVYDCAALWGRRGWWGVSWSFSTGFDYWGQGTQVTVSS,high polyreactivity
15,QVQLVESGGGLVQAGGSLRLSCAASGRTIGVYALGWSRQAPGKERELVAALTTSGDSTYYADSVKGRFTISRDNAKNTDYLQMNSLKPEDTAVYYCAARSYRKPRHVSVTYYYWGQGTQVTVSS,low polyreactivity
